Like-named read-outs stand apart in the source and are kept apart here.

Assay [1] has as its target T1, SARS-CoV-2 WT RBD (SARS-CoV-2 WT (Wuhan-Hu-1), UniProt P0DTC2). The experiment in a line: ELISA. The conditions noted are these: both partners purified. On the technique in general: ELISA stands for enzyme-linked immunosorbent assay.
The target in assay [2] is recombinant FL spike WT-2P (SARS-CoV-2 WT (Wuhan-Hu-1), stabilised, biotin (EZ-Link Sulfo-NHS-Biotin) in the BLI experiments).
Assay [3] addresses T1, SARS-CoV-2 WT RBD.
Assay [4] has as its target recombinant FL spike WT-6P (SARS-CoV-2 WT (Wuhan-Hu-1), UniProt P0DTC2, stabilised, biotin (EZ-Link Sulfo-NHS-Biotin) in the BLI experiments).
The target of another assay is spike BA.1-6P (SARS-CoV-2, Omicron BA.1, strain).

B1: LY-CoV555 (Eli Lilly) (antibody, V domains shown)
VH: QVQLVQSGAEVKKPGSSVKVSCKASGGTFSNYAISWVRQAPGQGLEWMGRIIPILGIANYAQKFQGRVTITADKSTSTAYMELSSLRSEDTAVYYCARGYYEARHYYYYYAMDVWGQGTAVTVSS
VL: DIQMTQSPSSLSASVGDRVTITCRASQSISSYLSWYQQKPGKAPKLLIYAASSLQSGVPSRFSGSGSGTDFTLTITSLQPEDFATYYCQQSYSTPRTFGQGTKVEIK
As to B1, the binding result with SARS-CoV-2 WT RBD [1] is “binds”.

B2: S451-1140 (antibody, V domains shown)
VH: EVQLVESGGGLVPPGGSLRLSCAASGFIFSNYAMTWVRQAPGKGLEWVSAISGGGGSTDYADSVKGRFTISRDNSKNTLYLQMNSLRAEDTAVYYCAKDLFGSGWSLFDNWGQGTLVTVS
VL: not shown
With B2, the binding result (in assay [2]; in the assay with SARS-CoV-2 WT RBD [3]; in assay [4]; in the assay with spike BA.1-6P) was “binds” each time.

B3: REGN10933 (Regeneron) (antibody, V domains shown)
VH: QVQLVESGGGLVKPGGSLRLSCAASGFTFSDYYMSWIRQAPGKGLEWVSYITYSGSTIYYADSVKGRFTISRDNAKSSLYLQMNSLRAEDTAVYYCARDRGTTMVPFDYWGQGTLVTVSS
VL: DIQMTQSPSSLSASVGDRVTITCQASQDITNYLNWYQQKPGKAPKLLIYAASNLETGVPSRFSGSGSGTDFTFTISGLQPEDIATYYCQQYDNLPLTFGGGTKVEIK
notes: source: HEK293T, transiently cotransfected, purified (protein A-agarose beads); copies: 2 + 2
For B3, the binding result in the assay with SARS-CoV-2 WT RBD [1] is recorded as “binds”.

B4: S626-161 (antibody, V domains shown)
VH: QLQLQESGPGLVKPSEALSLTCTVSGGSISTSNYYWGWIRQPPGKGLEWIGSIYYRGGTHYNPSLKTRVTISVDTSKNQFSLKLSSVTAADTAVYYCARHTYFYDIVGAAVWEPFDIWGQGTMVTVSS
VL: not shown
With B4, the binding result (in assay [2]; with SARS-CoV-2 WT RBD [3]; in assay [4]; with spike BA.1-6P) was “binds” each time.

B5: S728-1157 IgG (antibody, V domains shown)
VH: EVQLVESGGGLVQPGGSLRLSCAASGLLVSRNYMNWVRQAPGKGLEWVSIIYSGGSTFYADSVEGRFTISRDESKNTLYLQMNSLRTDDTAVYYCARDLSDYGGIDCWGQGTLVTVSS
VL: YELTQPLSVSMALGQTARISCGGDNVGSQNVHWYQQRPGQAPVLVIYRDSNRPSGIPERFSGSKSGNTATLTISRAQAGDEADYYCQVWDSSTVAFGGGTKLTVL
notes: copies: 2 + 2
With B5, in the assay with SARS-CoV-2 WT RBD [1], the binding result was “binds”.

The values are drawn from PMC10104900 (The Journal of Clinical Investigation, 2023).
